In a protein production outcome set (Wang et al. 2014) one finds protein production data, which are given here for 19 sequences.
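Also: failed if final PepcDB status was selected cloned or expressed and not failed if soluble or beyond.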

A short description of this series: label from the status in PepcDB records.
With “MRPIKLLPDGLISQIAAGEVIERPASVLKELLENAIDAGTTDISVNIAQGGLKLIRVTDNGGGISGEELPLALTRHATSKIASQEDLYRITSLGFRGEGLASIASVSNLLLISHQPGGKHAWQIRSEGIRVMQPEPSSHAAGTTVEVRDLFFNLPARRKFLKTEATEFAHCEEIIRRMALSHAGIAFTLRHNGNLRGHWQSAEAAVRIKTVLGEEFTRSAAWIDERSAGIGLQGMLALPAYSRAARDMQYFFVNGRFVRDKLITHALREAYRDVLHLDRHAAFVLYLDIDPEQVDVNVHPTKTEIRFREARAIHQFIYHGVSKALSLPRSGTELSQSSSQLMADDIVPPAEKRVPAAPMLNYPRQTGLPSEMIAQPFNFYQVLSGSESDSTATQNPFRQTGAGESNEHPALPPLGFALGQLHGVYILAQNWKGLVIVDMHAAHERIVYEQLKLQMDEQTLSAQRLLIPVTFHADSLDIATAEENQSLLQQLGFEVTVLTATTLAVRAVPAILQDADTEKLVCNVLDEIRNGDPGQLLAARRNELLATMACHGAVRANRPLTLIEMNELLRKMEVTERSDQCNHGRPTWFEISLAELDKMFMRGK”, the protein production entry is “failed”. The value for “SFSAPIEDLQVRIAFLDELVEQLNTQLALQTQEIADLKKQMQLLYQRVEASDLSEGIAPFDPNTNKPPHY” was “failed”; that for “MDIKRYCPVTDSELPADHVYFKFRSEIEAAEAYLGLAISEGIKVRETREILDIIDTVYNSLSDPESKLNDFQEKRLNFTEEDWYDIKEKANNGNRWSLYMFLARSAVDSAVYWSYRMKETEEFKEIVKEEMISKLLKAGYVILRESLGEVRL” was “not failed”; that for “MTIAVDFDGTIVEHRYPRIGEEIPFAVETLKLLQQEKHRLILWSVREGELLDEAIEWCRARGLEFYAANKDYPEEERDHQGFSRKLKADLFIDDRNVGGIPDWGIIYEMIKEKKTFADIYSQQREENTSQKKKRKWLPF” was “not failed”. The value for “MVWWWRALGPSGEGQPGPLPSSLFPVIDPSRPTMQDIECLGVYTSGGDAPGMNACLRAVVRTAIANDIAVMGIRRGYEGMIEADFVEMERRSVSNILQSGGTILKSARSEAFRTEEGRRAAANSLRENGIDALVAIGGDGTFRGASKLYDEHGLGVVGCPGTIDNDLYGTDQTIGYDTALNTAIDNIDRIRDTADAHNRLFLVEVMGRDAGFIALNSGIGGGAELILIPETITEMDMVKERILSLMTAQRRSTIVVVAEGDELGGAQGIERALRDDAAFSDIELRSTILGHTQRGGAPTASDRVLASRLGVAAVESLMDGHSDVMVGMTNNEIKLTPLRNVYGRRKSIDYDLLKLTQILS” was “failed”. As for “MPSQKPIIVSKTSAAASSSSDRLRIIPLGGLHEIGKNTCIYEVGDEILLVDAGLAFPTDGMHGVNVVLPDMTYLRENQHRIKAMVVTHGHEDHIGGIPFHLRQLDIPIIYGPRLAMALLAGKLEEAGVVGRANVKTVQPREVVRIGQNFLVEFIRNTHSIADSFTLAIRTPLGVVIHTGDFKFDHTPVDGETFDIQRLADYGEQGVLCLVSDSTNAELPGFTPSERSVFPNLDRAFSQAQGRLIVTTFASSVHRVNMILELAKKHGRKVTVLGRSMLNVIAHARNLGYIHCSDDLFLPPKELRDHPDRDVLILTTGSQGEPLAALTRIARQEHPQVKIRQGDTVIFSANPIPGNTISVVNTIDQLMMQGAHVVYGKGAGIHVSGHGCQEDQKLMIALTKPKFFVPVHGEHRMLVQHCKTAQSMGVPPEHMIVIDNGDTVELTPESIGLGDRVTAGIELVDTSRTGLVDGKALKERQQLAEDGLVSLSALVNSQGQLVDAPTVHLRGVVTSADPRRVSVWAQKEVEMALDNRWADYCRRLPSGELDVDWVGLHAEVEVGMQRRLKRELQCVPMILCTLQSVPSVAAQPAEEDNRMRRRRSSAPIKVGAKL”, the entry is “failed”.

With “MQVSREFKGIFLASISATFWGISGAVAQTLFDTTDINSIWLTGIRMLGAGIALLLVSLLTHVDLWSIWRQPRDLLQIVAYTLLGLMPVQFTYFLAVEASNAATGTILQFMGPVFIALWMLVAHRQLPTRAEGLAIICALLGSFLLVTHGNPQTLVISVWALIWGLLSGVSSATNTLLPTKLLTKYDPMTVNTWSMLLGGILFNIVQPVWSIHIPLTMLNISKLTFVVLFGTLLAFLFFLQSLQYIRPTVVSLLDAFEPLSATIIAVVLLGVSFGWLDILGSVLIISTVFILAIGQGPNDRTAENFKQP”, the protein production result is “failed”. Regarding “MEETILIVSFLLFLILSNVINRIFPKLPLPFIQLVFGILSGLVFHKSQVHIDPELFLAFVIAPLNFREGQESDIGSFIKYRAIILYLILPTVFLTAIVVGYVAGHLLPVSLPLAACFALGAALGPTDAVAFISIAKRFQFPKRAENILKLEGLLNDASGLVSFQFALTALVTGYFSLAKASLKLALAIMGGFLIGLLFAFLMRLCLTVLEKFDAADVTGALLLELTLPFVAYFVADLLGFSAIIAVVVAGVMQANRLKKVTLFDAQVDRVTSVIWETLNFILNGLVFLIFGRELTRIIGPLLTSNAYSNFDLISIVVLVTCTLFLVRFLAVSCFYAWRSFKYHKSFKKYWREIQLLTFSGVKGSVSIATILLLPKHSVIGELGYSLILFTVGAVTLMSFLTGLLVLPKLAPPLQVKDDYLIRLSILTKVLSVLEEDGKSSENQASFYAVIDNYNSRIRHLILEQESSDIKKDLAELQLMMLSIESDGLEAAYRYGNISIKEYRIYQRYLKYLERQVNRSFVSNITYSLTILMRVIRGIVHEFLTFGQGIRNRKKHFKNRKRLLAEVNRQHLTDLYLSNNDLILETLEDMEGYYNATLIDFLQNERIRDAELIKSGLFVERVIARITPDILNETLRGYYLERRTISEFERDGLISSKESQILRDNVNELESYSLRDSQSSIPYQLLDLKK”, the protein production result is listed as “failed”. As for “MGPSILKMLTHAKSHKEALMAFSRREFLKSAAAASAASAVGMSVPSQLLAQAQEGEKGWRWDKSVCRFCGTGCGIMVATKNDQIVAVKGDPAAPVNRGLNCIKGYFNAKIMYGADRLTDPLLRVNEKGEFDKQGKFKPVSWKKAFDVMEAQFKRAYNELGPTGIGVFGSGQYTIQEGYMAAKLIKGGFRSNNLDPNARHCMASAVAAFMETFGIDEPAGCYDDIELTDTIITWGANMAEMHPILWARVTDKKLSNPDKVKVINLSTYTNRTSDLADIEIIFTPQTDLAIWNYIAREIVYNHPESIDMEFVKNHCIFTTGFTDIGYGMRTDIKHAKYDPKELDIAAKERSKVLSEAEGVTLRYLGMKAGDVMEMKHNATAGNHWEITFEDFKKALEPYTLDFVAKLAKGNSEESLESFKEKLQKLANLYIEKERKVVSFWTMGMNQHTRGTWVNEQSYMVHFLLGKQAKPGSGAFSLTGQPSACGTAREVGTFSHRLPADMVVANPKHRAVSEKIWKLPEGTLNPKMGAHYMNIMRDLEDGKIKFAWIQVNNPWQNTANANHWIKAAREMDNFIVCSDAYPGISAKVADLILPTAMIYEKWGAYGNAERRTQHWRQQVVPVGNAMPDVWQMAEFSKRFKLKEVWGAKKIDDKLTLPDVLEKAKAMGYSPEDTLFEVLFANSEAKSFKAKDPIGEGFENTEVFGDRRNVAGSDGEVFKGYGFFIHKYLWEEYRRFGNGHGHDLADFDTYHKVRGLKWPVVDGKETQWRFNAKYDPYARKAGSGEFAFYGDAMKELPRGDLLSPKTEEKFKLTNKAKIFFRPYMDPPEMPSSEYPLWLCTGRVLEHWHSGTMTMRVPELYRAVPEALCYMHPEDAKKLGVKQNEAVWVESRRGKVKARVDTRGRNRTPLGLVYVPWFDEKVYINKVCLDATCPISKQTDFKKCAVKVYKA”, the entry is “failed”; as for “MSITQRKNGTYEVSISWYDSLGKRRTKSKRGFKTKPEAVLGEAKLRLEYEEVSVREKVDQQDTFAEYFKNWYIFYKKPKVSKVTLNRYQYTYNVINEYFGNKLLKDITRANYQKFIVKYGQNHSPNTMKMINNCIKACVKNAVYDEEIKKDFTYNIELISNRDNVVQVEYLNVAEIKALLNSTISKLNPRYTSNYMIVTAILTGARLSEIAGLTWNDINFNFNTININKSYDYFAKSFKPTKNKSSNRIIKINNTLCDVLKELRTNNTDLVFKNKRGLIPTSNAVNKALRARLEELNINRRNFHFHSLRHSHVAFLLSQGIDIYPIAQRLGHSDITTTTRTYAYLIEEYKDKNDAIIIAGLDKLSAEKAPTKVPAKSDI”, “failed”.

“MEATKERVGLLDTILPPALADAGLEDCALPPESIQEAFRKAANAVKSRAASIFDHEEEDGCLADPIPETADKIIVGGDNERDTGPCLAGKGIEKLAESKQAGDLVVAGEGEEGKSCVDGLKDLDVEGIERSSEKKDQSDEDEEEEMKPILVEGFV”: the protein production result is given as “failed”.

As for “MTQKNVITEVFDIVFIFVLAFACVVIPTVLQGAVLVSWEEGGAGIGFVWDPVGFFSFLLVIVAFFAVILYHSVKHYRY”, the protein production entry is on record as “failed”. As for “MLTRAIKTQLVLLTVLAVIAVVVLGWYFLRIPSLVGIGRYTLYAELPRSGGLYRTANVTYRGITIGKVTGVEPTERGARATMSIDNGYQIPTDASANVHSVSAVGEQFVDLVSTRTSGPYLRHGQTITTTTVPSQIGPALDAANRGLAVLPKDRVASVLHEASEAVGGLGSSLNRLIEATQAIAHDVRGSLEDIDDIIERSAPIIDSQVNSGNEIARWAANLNTLAAQTAQTDPAVRSILANAAPTADQVNATFSDVRESLPQTLANLEVVIDMLKRYHNGVEQALVFLPQSGAIAQSVTTEFPGQAGLGVGGLALNQPPPCLTGFLPASEWRSPADTSTAPLPKGTYCRIPMDASNVVRGARNNPCVDVPGKRAATPRECRSNEAYVPGGTNPWYGDPNQMLSCPAPAARCDQPVKPGQVIPAPSVNNGINPLPADQLPGTPPPVNDPLQRPGSGTVQCNGQQPNPCVYTPSTFPTTIYDVQSGKVVAPDGVVYSVEASTHAGADGWKVMLAPTG”, the entry is “failed”. The value for “MVLIALLIALSVERLYHSPAFLHWSFFLERWQHWSAARLTNEKWKSEPLQLVRLLVPALAVGFLVVLLDNLMVTFIVSILSLLLAMNCEPARKSYKAYLKAANRGDEQQVNEHQHALTEFAGQHQPKQLSDSLIWINYRQYIAVMFYFVLFGSFGALVYASLRYAEKQISEPESTKLWQQFMWFADWVPARLAGFGLLIVGHFSRAFPVWVKHSLNPQADPDKLLFNVASKAEDIPQHPDDRTEHIACQLRLMRRQQIFWVCVIAALTLTGWVN” was “failed”. As for “MAPAEPACRCAAAPCSSMIGIDRGSAARLILFRKTFYNIEHTFGRLIVASDLRGLAKYVEPGIRLAVPVDYAGVSMAMTRPIIERKAGNLHLICVPTGGLQVDQLIGSGLVRTVETSAVTLGEAGGAPRFNAAVKDGSIKLMDATCPAIHAGLMAAQKGSPFMPMRGLIGSDILRHRKDWRVIDNPLSDGGDPVVLIPAIKPDVTIFHAPMADRFGNVWIGRRRELAAMAYASATTLVTVERIVEESLLANEITAAGVLPAIYVTEVALAPKGAWPYGLWGEYQTDTQELVRYARAARTAEGFADYMATTQMEPA”, the entry is “failed”; as for “MMRRQRDEQQSRVFYDLSSLVLNLLRSPPMPISLPDHFPDPPARIRPPFSSHRFSSSSPSLAHISPSGFASLLLGISVALMLCGSVTFFIGFLLMPWVLALILVFYVAGIVSAISMVGRSILCYVLTPPSPSGKEISEWKLL”, “failed”. Turning to “MASIVMLLRALMSCRLTPKDEPETSDSSSSAAKLYRNIVGDENVTRKRISVVDTSHLGDNHEFIIETTCGSNDMDEGFYWIIVRNHLM”, the protein production result is “failed”.

On to “MQASSNGTTHTKRVRIRPFQKGIRRKRKDLMTEAENRCRLVLIVPDIADADEQARIVADALKGGDVASVIVPQYGLDDGAFQKHAEKLVPVIQDAGAAALIAGDSRVAGRAKADGLHITGNAQALSEAIDKHAPKLIVGGGNASDRHNALEIGEVRPDYIFFGKLDGDIKPEAHPKNLALGEWWASMIEIPCIVMAGTDPASALAVAETRAEFVALRLAVFGEPGRAPSIVAEINALLDEKAPRFED”, for which the protein production entry is on record as “failed”. In the case of “MDIKSETEQYKRKAEIEKHTKEPNKHRDEAVLQNRAGRHRDRAVIDHKSEERERESVQNVTEMSGIERSEGEWSPPVEGITDEELPSHSPMDDLGFALFASWGRKTERQRMGSPDIRIYIFNPIKKIIIMETRIRFGLEWKPSGFGS”, the protein production result is reported as “failed”.
